Laboratory results published in paper doi:10.1101/723213.

What was measured:
[1] = target: CENP-A_(144-225)–H4 heterodimer (Drosophila melanogaster), Q9V6Q2; experiment: SEC-MALS; settings: remark: other sources report otherwise
[2] = target: CENP-A_(101-225)–H4 heterodimer (Drosophila melanogaster), Q9V6Q2; experiment: SEC-MALS; settings: remark: other sources report otherwise
Chain of CENP-A_(101-225)–H4 heterodimer (Drosophila melanogaster), Q9V6Q2 (Q9V6Q2 101-225, one chain of several): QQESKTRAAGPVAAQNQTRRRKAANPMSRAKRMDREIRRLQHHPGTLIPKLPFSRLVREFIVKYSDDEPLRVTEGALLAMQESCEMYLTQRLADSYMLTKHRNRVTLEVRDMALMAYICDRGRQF

Chain of CENP-A_(144-225)–H4 heterodimer (Drosophila melanogaster), Q9V6Q2 (Q9V6Q2 144-225, one chain of several): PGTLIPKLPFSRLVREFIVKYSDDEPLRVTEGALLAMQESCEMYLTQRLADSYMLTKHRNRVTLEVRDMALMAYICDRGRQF

stoichiometry N (CAL1 per CENP-A/H4 heterodimer) [1]: 1
stoichiometry N (CAL1 per CENP-A/H4 heterodimer) [2]: 1
B1: His-CAL1_(1-160), Q9VEN2 1-160 (domain or fragment)
chain: MANAVVDEETLEAMVYERSKAWSSKMADFASLEDGMEIDVAEFDNLFHGEDEDPDLDDVAKEAVEDNVPDEAKLEMGHINATSVTELTLILCANEDNEAKAEIEEILNQTVPVVEEHKRKWREAGLDRILDTFDEKQIEHHVGRWMRRHNSVYLEASPPK
